In US10913773B2, “Bicyclic peptidyl inhibitor of tumor necrosis factor-alpha” (Ohio State Innovation Foundation, priority 2016, dated 2021):
Read-outs that look alike come from different tables or passages of the source. Blank lines part the entries; values can stand above or below the molecule they belong to. Positions of bridges follow the written chain, without caps; N, C: chain ends. Non-standard residues stand in square brackets, D forms with d. Primed or numbered codes have the meaning given here. No end group written: not given here. *: point of attachment. FITC(3) = fluorescein isothiocyanate (N6-fluorescein-thiocarbamoyl on Lys); FITC = O=C1OC2(c3ccc(O)cc3Oc3cc(O)ccc32)c2ccc(NC(=S)*)cc21; trimesoyl″ = benzene-1,3,5-tricarbonyl scaffold; FITC′ = fluorescein isothiocyanate, on Lys NZ; Phg = N[C@H](C(=O)O)c1ccccc1; Nle = CCCC[C@H](N)C(=O)O; Dap = NC[C@H](N)C(=O)O; AEEA = NCCOCCOCC(=O)O

Legend:
TNFα-TNFR1 interaction = biological target: T1, TNFα-TNFR1 interaction (Homo sapiens, UniProt P01375); experiment: ELISA inhibition of TNFα-TNFR1 interaction (immobilized biotinylated TNFα, TNFR1-HRP); type: binding; details: inhibition of TNFα-TNFR1 interaction, unlabeled peptides
T1 construct: made in house; host or cells: Escherichia coli (TNFα)
Experimental: Inhibition of TNFα-TNRF1 interaction by ELISA was carried out as previously described (Lian, W.; et al., supra).
Because of its high-throughput capability, FA analysis had been used to generate all of the SAR data described above. […] To confirm the SAR data obtained by FA analysis, some of the compounds in Table 5 (as well as new compounds) were resynthesized without the Lys(FITC) label and employed a more sensitive ELISA-based assay to determine the IC50 values for inhibition of the TNFα-TNFR1 interaction. Briefly, biotinylated TNFα was immobilized onto a NeutrAvidin-coated surface. TNFR1 conjugated with horseradish peroxidase (HRP) (0.5 nM) was added along with different concentrations of a peptide inhibitor. After washing, the amount of bound TNFR1-HRP was quantitated by ELISA. […] In agreement with the FA results, either extension at the C-terminus of β-Ala with another amino acid (C1-67 to C1-70) or side-chain modification of β-Ala (C1-71 to C1-73) decreased TNFα binding.

[1] = test system: TNFα-induced cell death in WEHI-13VAR fibroblasts (recombinant human TNFα); type: cell-based
Experimental: WEHI-13VAR fibroblasts were purchased from American Type Culture Collection (ATCC). For maintenance, cells were grown in full medium as RPMI-1640 supplemented with 10% FBS and 1% Abs. For toxicity assay, cells were seeded in a 96-well plate at a density of 5×10^3 cells/well in 100 μL of RPMI-1640/1% Abs supplemented with 10% or 5% FBS and allowed to grow overnight. Varying concentrations of recombinant human TNFα (0-250 ng/mL) or commercial mouse TNFα were (0-100 pg/mL) were incubated with 10 μM peptide and actinomycin D (1 μg/mL) in 100 μL of corresponding growth medium for 1 h at 37° C. Next, the medium in the 96-well plate was removed and replaced with the above fresh mixture and the cells were incubated overnight. Next day, 10 μL of the 3-(4, 5-dimethylthiazolyl-2)-2, 5-diphenyltetrazolium bromide (MTT, final concentration 0.5 mg/ml) was added to each well and incubated at 37° C. for 3 h, following by the addition of 100 μL of the MTT solubilization solution. The plate was kept in the incubator overnight to let the formazan crystals to completely dissolve, and the absorbance at 570 nm was measured on a TECAN plate reader. The LD50 was obtained as plotting the viability as a function of the TNFα concentration.
One of the biological functions of TNFα is to induce death signaling. Inhibitors against the TNFα-TNFR interaction are expected to protect cells against TNFα induced cell death. Therefore, anticachexin C1, C1-74, and C1-74-2 through C1-74-5 were compared for their ability to protect cultured WEHI-13 VAR fibroblasts, which are highly sensitive to TNFα in the presence of actinomycin-D, against TNFα-induced cell death (Khabar, K. S. A.; et al., “WEHI-13VAR: A Stable and Sensitive Variant of WEHI 164 Clone 13 Fibrosarcoma for Tumor Necrosis Factor Bioassay.” Immunol. Lett. 1995, 46:107-110). The cells were treated with a fixed concentration of peptides (10 μM) and varying concentrations of TNFα (0-1 μM), and the fraction of live cells was quantitated by the 3-(4,5-dimethylthiazol-2-yl)-2,5-diphenyltetrazolium bromide (MTT) assay. […] The MTT assay was also conducted at a fixed concentration of TNFα (0.4 ng/mL) but varying concentrations of peptides (0-10 μM).

TNFα = biological target: T2, TNFα (Homo sapiens, UniProt P01375); experiment: Fluorescence anisotropy (FA) binding of fluorescently labeled bicyclic peptides to TNFα; details: relative to comparator analogue named in text
T2 construct: ybbR tag (13 aa) (N); made in house; host or cells: Escherichia coli
T2 sequence (P01375 77-233 limits assumed): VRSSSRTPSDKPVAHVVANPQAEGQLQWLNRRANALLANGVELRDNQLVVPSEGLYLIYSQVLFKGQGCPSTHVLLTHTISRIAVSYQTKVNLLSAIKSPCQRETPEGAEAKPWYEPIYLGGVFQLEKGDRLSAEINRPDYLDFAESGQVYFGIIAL
Experimental: FITC-labeled bicyclic peptide (50 or 100 nM) were incubated with varying concentrations of TNFα (0-5 μM) in 30 mM HEPES, pH 7.4, 150 mM NaCl, and 2 mM magnesium acetate for 2 h. The FA values were measured on a Molecular Devices Spectramax M5 spectrofluorimeter, with excitation and emission wavelengths at 485 and 525 nm, respectively. Equilibrium dissociation constants (KD) were determined by plotting the FA values as a function of TNFα concentration and fitting the data to the following equation
[formula] where Y is the measured anisotropy at a given TNFα concentration x; L is the bicyclic peptide concentration; Qb/Qf is the correction fact for dye-protein interaction; Amax is the maximum anisotropy when all the peptides are bound to TNFα, while Amin is the minimum anisotropy. Competition experiments were performed by incubating 100 nM Asn-Asn-Asn-Lys(FITC)-labeled anticachexin C1 (Table 1), 2 μM of TNFα, and varying concentrations of unlabeled competitor peptide (0-20 μM) in the above buffer for 2 h. The FA values were plotted against the competitor peptide concentration to determine the IC50 values.
To identify residues significant for TNFα binding, each residue of anticachexin C1 (other than D-alanine at position-3, L-lysine at position-4, and L-2,3-diaminopropionic acid (Dap) at position-10) was individually replaced with an alanine (or D-alanine). To facilitate binding analysis by fluorescence anisotropy (FA), a tetrapeptide NNNK (SEQ ID NO: 1) was added to the C-terminus of each bicyclic peptide and the lysine side chain was labeled with fluorescein isothiocyanate (FITC) during solid-phase synthesis (Scheme 1). The three asparagine residues were added to improve the aqueous solubility of the bicyclic peptides. The bicyclic peptide was prepared by first synthesizing the full-length linear sequence on Rink amide resin using standard Fmoc/HBTU chemistry. The side chains of the two internal cyclization residues, L-lysine and Dap, were protected with monomethoxytrityl (Mmt) groups, whereas the C-terminal lysine was protected with an allyloxycarbonyl (Alloc) group. After removal of the N-terminal Fmoc group, a trimesic acid was coupled to the N-terminal amine using HBTU as the coupling agent. Next, the Mmt groups were selectively removed from the Lys and Dap side chains by 2% TFA and the peptide was cyclized by treatment with (benzotriazol-1-yloxy)tripyrrolidinophosphonium hexafluorophosphate (PyBOP). The Alloc group on the C-terminal lysine side chain was removed by treatment with Pd(PPh3)4 and the bicyclic peptide was selectively labeled at the C-terminal lysine by treating the resin with FITC. […] On the other hand, phenylglycine (Phg)-1 and glycine-7 play more minor roles in binding.

[2] = biological target: T3, Recombinant TNFα containing an N-terminal 13-aa ybbR tag (human, UniProt P01375 77-233, biotin at the ybbR tag in the ELISA assays); experiment: FA; against C1
T3 construct: Expressed in E. coli; Same construct used unlabelled (FA) and biotinylated on NeutrAvidin (ELISA); also called tumor necrosis factor-alpha; human TNFα; not shown: N-terminal 13-aa ybbR tag
T3 sequence (P01375 77-233): as the sequence (P01375 77-233 limits assumed) above
Experimental: (§1) The FA values were measured on a Molecular Devices Spectramax M5 spectrofluorimeter, with excitation and emission wavelengths at 485 and 525 nm, respectively. Equilibrium dissociation constants (KD) were determined by plotting the FA values as a function of TNFα concentration and fitting the data to the following equation $$Y = \frac{\left(Amin + \left(Amax \times \frac{Q_b}{Q_f} - Amin\right)\left(\frac{(L+x+K_d) - \sqrt{((L+x+K_d)^2 - 4Lx)}}{2L}\right)\right)}{\left(1 + \left(\frac{Q_b}{Q_f} - 1\right)\left(\frac{(L+x+K_d) - \sqrt{((L+x+K_d)^2 - 4Lx)}}{2L}\right)\right)}$$
(§2) where Y is the measured anisotropy at a given TNFα concentration x; L is the bicyclic peptide concentration; Qb/Qf is the correction fact for dye-protein interaction; Amax is the maximum anisotropy when all the peptides are bound to TNFα, while $Amin$ is the minimum anisotropy. […] The FA values were plotted against the competitor peptide concentration to determine the IC$50$ values.

[3] = biological target: T3, Recombinant TNFα containing an …; experiment: FA, FITC-peptide + TNFα titration
Experimental: as §1, §2

[4] = biological target: T3, Recombinant TNFα containing an …; experiment: FA, FITC-peptide + TNFα titration; remark: listed apart in the source
Experimental: as §1, §2

[5] = biological target: T3, Recombinant TNFα containing an …; experiment: FA
Experimental: as §1, §2

[6] = biological target: T3, Recombinant TNFα containing an …; experiment: FA, FITC-peptide + TNFα titration; remark: listed apart in the source
Experimental: as §1, §2

Fold of Affinity Reduction [2]: 7 fold
Kd [3]: 5.9 µM
Molecule: [Phg]Y[dA]KY[dF]G[dA]H[Dap]NNNK(FITC(3))-NH2 (linker N-4-10 via trimesoyl″) [Anticachexin C1 D-Lys8 → D-Ala, NNNK(FITC)-tagged]

Fold of Affinity Reduction [2]: 1.5 fold
Kd [3]: 1.2 µM
Molecule: [Phg]Y[dA]KY[dF]A[dK]H[Dap]NNNK(FITC(3))-NH2 (linker N-4-10 via trimesoyl″) [Anticachexin C1 Gly7 → Ala, NNNK(FITC)-tagged]

Fold of Affinity Reduction [2]: 12 fold
Kd [3]: 11 µM
B1: Anticachexin C1 Tyr5 → Ala, NNNK(FITC)-tagged (peptide)
peptide: [Phg]Y[dA]KA[dF]G[dK]H[Dap]NNNK(FITC′)-NH2
modifications: bridge (positions not given here) via trimesoyl″; not fully specified (N-terminus, bridges); also: feature: K4 labeled with FITC

Fold of Affinity Reduction [2]: 4 fold
Kd [3]: 3.4 µM
Molecule: [Phg]Y[dA]KY[dA]G[dK]H[Dap]NNNK(FITC(3))-NH2 (linker N-4-10 via trimesoyl″) [Anticachexin C1 D-Phe6 → D-Ala, NNNK(FITC)-tagged]

Fold of Affinity Reduction [2]: 5 fold
Kd [3]: 4.4 µM
Molecule: [Phg]Y[dA]KY[dF]G[dK]A[Dap]NNNK(FITC(3))-NH2 (linker N-4-10 via trimesoyl″) [Anticachexin C1 His9 → Ala, NNNK(FITC)-tagged]

Fold of Affinity Reduction [2]: 14 fold
Kd [3]: 13 µM
B2: Anticachexin C1 Tyr2 → Ala, NNNK(FITC)-tagged (peptide)
peptide: [Phg]A[dA]KY[dF]G[dK]H[Dap]NNNK(FITC′)-NH2
modifications: bridge (positions not given here) via trimesoyl″; not fully specified (N-terminus, bridges); also: feature: K4 labeled with FITC

Kd [4]: 0.51 µM
Molecule: [Nle]Y[dS]KW[dH]G[dK]H[Dap]I[AEEA]K(FITC)-NH2 (linker N-4-10 via trimesoyl″, C1-35 core with R11 as printed) [C1-57]

Kd [4]: 5.1 µM
Molecule: [Nle]Y[dS]KW[dH]G[dK]H[Dap][AEEA]K(FITC)-NH2 (linker N-4-10 via trimesoyl″, C1-35 core with R11 as printed) [C1-54]

Fold of Affinity Reduction [2]: 1.2 fold
Kd [3]: 1 µM
Molecule: AY[dA]KY[dF]G[dK]H[Dap]NNNK(FITC(3))-NH2 (linker N-4-10 via trimesoyl″) [Anticachexin C1 Phg1 → Ala, NNNK(FITC)-tagged]

More lines, now with the values behind:

Molecule: CC(=O)[C@@H](Cc1ccccc1)NC(=O)[C@@H](C)NC(=O)C(N)Cc1ccc(F)c(F)c1 (stereo partly drawn) [Compound C1-74-3]
IC50 (TNFα-TNFR1 interaction): 0.15 ± 0.043 µM
LD50 [1]: 2.6 ± 0.9 ng/mL

Molecule: CCCC[C@@H]1NC(=O)c2cc3cc(c2)C(=O)NC[C@@H](C(=O)N[C@@H](CCCCNC(=S)Nc2ccc4c(c2)C(=O)OC42c4ccc(O)cc4Oc4cc(O)ccc42)C(N)=O)NC(=O)[C@H](Cc2c[nH]cn2)NC(=O)[C@@H](CCCCN)NC(=O)CNC(=O)[C@@H](Cc2ccccc2)NC(=O)[C@H](Cc2ccc(O)cc2)NC(=O)[C@H](CCCCNC3=O)NC(=O)[C@@H](C)NC(=O)[C@H](Cc2ccc(O)cc2)NC1=O [Compound C1-5]
Increase of TNFα binding affinity (fold) (TNFα): ~2 fold

Molecule: [Nle]Y[dS]KW[dH]G[dK]H[Dap]F[AEEA]K(FITC)-NH2 (linker N-4-10 via trimesoyl″, C1-35 core with R11 as printed) [C1-55]
Kd [4]: 1 µM

Molecule: [Nle]Y[dS]KW[dH]G[dK]H[Dap]DK(FITC)-NH2 (linker (positions not given here) via trimesoyl″; not fully specified (bridges), C1-35 core with R11 as printed) [C1-51]
Kd [4]: 3.5 µM

Molecule: [Nle]Y[dS]KW[dH]G[dK]H[Dap]NK(FITC)-NH2 (linker N-4-10 via trimesoyl″, C1-35 core with R11 as printed) [C1-52]
Kd [4]: 0.79 µM
fold reduction in affinity against C1-35 [5]: 3 fold

Molecule: [Nle]Y[dS]KW[dH]G[dK]H[Dap]K(FITC)-NH2 (linker N-4-10 via trimesoyl″) [C1-35]
Kd [4]: 0.26 µM
Kd [3]: 0.26 µM
Kd [6]: 0.26 µM
fold increase in affinity against Tyr at position-5 [5]: 3 fold
